Measured values taken from patent US20240392023A1 (ABCLON, published 2024).

T1: CD30 expressed on cells (CD30-293T, SUDHL1, HDLM-2) (UniProt P28908 19-595)
T1 sequence (looked up): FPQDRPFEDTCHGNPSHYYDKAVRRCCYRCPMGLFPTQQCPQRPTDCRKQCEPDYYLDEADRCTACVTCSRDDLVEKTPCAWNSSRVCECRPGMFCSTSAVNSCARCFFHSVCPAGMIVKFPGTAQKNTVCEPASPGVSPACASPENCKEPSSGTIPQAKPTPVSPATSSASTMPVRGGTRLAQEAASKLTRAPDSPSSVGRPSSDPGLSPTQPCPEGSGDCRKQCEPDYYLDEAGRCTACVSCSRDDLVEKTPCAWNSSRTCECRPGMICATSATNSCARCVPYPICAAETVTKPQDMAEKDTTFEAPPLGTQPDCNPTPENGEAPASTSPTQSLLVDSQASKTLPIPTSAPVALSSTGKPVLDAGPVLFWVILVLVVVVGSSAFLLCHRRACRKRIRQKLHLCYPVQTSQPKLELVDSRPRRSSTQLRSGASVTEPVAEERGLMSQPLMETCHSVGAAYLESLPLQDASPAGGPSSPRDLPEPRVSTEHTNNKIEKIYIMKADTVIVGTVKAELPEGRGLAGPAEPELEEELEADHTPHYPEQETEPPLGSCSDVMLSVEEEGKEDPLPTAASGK

B1: scFv CAR of anti CD30 antibody (T1-117), on CAR-T cells (other)
chain: EVQLLESGGGLVQPGGSLRLSCAASGFTFSYYGMSWVRQAPGKGLEWVSYISGYSSYTYYADSVKGRFTISRDNSKNTLYLQMNSLRAEDTAVYYCARYNDSGSFDYWGQGTLVTVSSGGGGSGGGGSGGGGSQSVLTQPPSASGTPGQRVTISCSGSSSNIGSNYVYWYQQLPGTAPKLLIYRNNQRPSGVPDRFSGSKSGTSASLAISGLRSEDEADYYCAADAGNRYVFGGGTKLTVLGGQAGQTTTPAPRPPTPAPTIASQPLSLRPEACRPAAGGAVHTRGLDFACDIYIWAPLAGTCGVLLLSLVITLYCKRGRKKLLYIFKQPFMRPVQTTQEEDGCSCRFPEEEEGGCELRVKFSRSADAPAYQQGQNQLYNELNLGRREEYDVLDKRRGRDPEMGGKPRRKNPQEGLYNELQKDKMAEAYSEIGMKGERRRGKGHDGLYQGLSTATKDTYDALHMQALPPR
B2: scFv CAR of anti CD30 antibody (T1-10), on CAR-T cells (other)
chain: EVQLLESGGGLVQPGGSLRLSCAASGFTFSSYGMSWVRQAPGKGLEWVSYISGGSYYTYYADSVKGRFTISRDNSKNTLYLQMNSLRAEDTAVYYCARYGYGYYDGSFDYWGQGTLVTVSSGGGGSGGGGSGGGGSQSVLTQPPSASGTPGQRVTISCSGSSSNIGSNYVYWYQQLPGTAPKLLIYRNNQRPSGVPDRFSGSKSGTSASLAISGLRSEDEADYYCAADGPYNYVFGGGTKLTVLGGQAGQTTTPAPRPPTPAPTIASQPLSLRPEACRPAAGGAVHTRGLDFACDIYIWAPLAGTCGVLLLSLVITLYCKRGRKKLLYIFKQPFMRPVQTTQEEDGCSCRFPEEEEGGCELRVKFSRSADAPAYQQGQNQLYNELNLGRREEYDVLDKRRGRDPEMGGKPRRKNPQEGLYNELQKDKMAEAYSEIGMKGERRRGKGHDGLYQGLSTATKDTYDALHMQALPPR
B3: scFv CAR of anti CD30 antibody (T1-2), on CAR-T cells (other)
chain: EVQLLESGGGLVQPGGSLRLSCAASGFTFSGYGMSWVRQAPGKGLEWVSYISGYSYYTYYADSVKGRFTFSRDNSKNTLYLQMNSLRAEDTAVYYCARYDGNGFDYWGQGTLVTVSSGGGGSGGGGSGGGGSQSVLTQPPSASGTPGQRVTISCSGSSSNIGSNYVYWYQQLPGTAPKLLIYRNNQRPSGVPDRFSGSKSGTSASLAISGLRSEDEADYYCAADSSDDSYVFGGGTKLTVLGGQAGQTTTPAPRPPTPAPTIASQPLSLRPEACRPAAGGAVHTRGLDFACDIYIWAPLAGTCGVLLLSLVITLYCKRGRKKLLYIFKQPFMRPVQTTQEEDGCSCRFPEEEEGGCELRVKFSRSADAPAYQQGQNQLYNELNLGRREEYDVLDKRRGRDPEMGGKPRRKNPQEGLYNELQKDKMAEAYSEIGMKGERRRGKGHDGLYQGLSTATKDTYDALHMQALPPR
B4: scFv CAR of anti CD30 antibody (T1-23), on CAR-T cells (other)
chain: EVQLLESGGGLVQPGGSLRLSCAASGFTFSSYSMSWVRQAPGKGLEWVSGIGYPYYTYYADSVKGRFTISRDNSKNTLYLQMNSLRAEDTAVYYCARYYYDYGFDYWGQGTLVTVSSGGGGSGGGGSGGGGSQSVLTQPPSASGTPGQRVTISCSGSSSNIGSNYVYWYQQLPGTAPKLLIYRNNQRPSGVPDRFSGSKSGTSASLAISGLRSEDEADYYCAAYRSYDYVFGGGTKLTVLGGQAGQTTTPAPRPPTPAPTIASQPLSLRPEACRPAAGGAVHTRGLDFACDIYIWAPLAGTCGVLLLSLVITLYCKRGRKKLLYIFKQPFMRPVQTTQEEDGCSCRFPEEEEGGCELRVKFSRSADAPAYQQGQNQLYNELNLGRREEYDVLDKRRGRDPEMGGKPRRKNPQEGLYNELQKDKMAEAYSEIGMKGERRRGKGHDGLYQGLSTATKDTYDALHMQALPPR
B5: scFv CAR of anti CD30 antibody (T1-7), on CAR-T cells (other)
chain: EVQLLESGGGLVQPGGSLRLSCAASGFTFSGYGMSWVRQAPGKGLEWVSYISSGSYYTYYADSVKGRFTISRDNSKNTLYLQMNSLRAEDTAVYYCARYRGDNDYYGYFDYWGQGTLVTVSSGGGGSGGGGSGGGGSQSVLTQPPSASGTPGQRVTISCSCSSSNIGNNAVSWYQQLPGTAPKLLIYRNNQRPSGVPDRFSGSKSGTSASLAISGLRSEDEADYYCAADYGSDYVFGGGTKLTVLGGQAGQTTTPAPRPPTPAPTIASQPLSLRPEACRPAAGGAVHTRGLDFACDIYIWAPLAGTCGVLLLSLVITLYCKRGRKKLLYIFKQPFMRPVQTTQEEDGCSCRFPEEEEGGCELRVKFSRSADAPAYQQGQNQLYNELNLGRREEYDVLDKRRGRDPEMGGKPRRKNPQEGLYNELQKDKMAEAYSEIGMKGERRRGKGHDGLYQGLSTATKDTYDALHMQALPPR
B6: scFv CAR of anti CD30 antibody (T1-36), on CAR-T cells (other)
chain: EVQLLESGGGLVQPGGSLRLSCAASGFTFSYYYMSWVRQAPGKGLEWVSYIGGGGSGTYYADSVKGRFTISRDNSKNTLYLQMNSLRAEDTAVYYCARGPYYGYFDYWGQGTLVTVSSGGGGSGGGGSGGGGSQSVLTQPPSASGTPGQRVTISCSGSSSNIGSNYVYWYQQLPGTAPKLLIYRNNQRPSGVPDRFSGSKSGTSASLAISGLRSEDEADYYCAAYPSYDSYVFGGGTKLTVLGGQAGQTTTPAPRPPTPAPTIASQPLSLRPEACRPAAGGAVHTRGLDFACDIYIWAPLAGTCGVLLLSLVITLYCKRGRKKLLYIFKQPFMRPVQTTQEEDGCSCRFPEEEEGGCELRVKFSRSADAPAYQQGQNQLYNELNLGRREEYDVLDKRRGRDPEMGGKPRRKNPQEGLYNELQKDKMAEAYSEIGMKGERRRGKGHDGLYQGLSTATKDTYDALHMQALPPR
B7: scFv CAR of anti CD30 antibody (T1-8), on CAR-T cells (other)
chain: EVQLLESGGGLVQPGGSLRLSCAASGFTFSSYMSWVRQAPGKGLEWVSSIGSGYYSTYYADSVKGRFTISRDNSKNTLYLQMNSLRAEDTAVYYCARDYYGGFDYWGQGTLVTVSSGGGGSGGGGSGGGGSQSVLTQPPSASGTPGQRVTISCSGSSSNIGSNYVYWYQQLPGTAPKLLIYRNNQRPSGVPDRFSGSKSGTSASLAISGLRSEDEADYYCAAYDSYSYVFGGGTKLTVLGGQAGQTTTPAPRPPTPAPTIASQPLSLRPEACRPAAGGAVHTRGLDFACDIYIWAPLAGTCGVLLLSLVITLYCKRGRKKLLYIFKQPFMRPVQTTQEEDGCSCRFPEEEEGGCELRVKFSRSADAPAYQQGQNQLYNELNLGRREEYDVLDKRRGRDPEMGGKPRRKNPQEGLYNELQKDKMAEAYSEIGMKGERRRGKGHDGLYQGLSTATKDTYDALHMQALPPR

These binders were tested against T1, CD30 expressed on cells (CD30-293T, …) (assay: cell-based or functional assay).
For B1, the “Cytotoxicity (%) against CD30-expressing cell (CD30-293T), CAR-T/Target 0.11” value was -3%, the “Cytotoxicity (%) against CD30-expressing cell (CD30-293T), CAR-T/Target 0.33” value was -1% and the “Cytotoxicity (%) against CD30-expressing cell (CD30-293T), CAR-T/Target 1” value (“Cytotoxicity (%) … (CD30-293T), CAR-T/Target 1” for short) was -14%.
For B2, the “Cytotoxicity (%) against CD30-expressing cell (CD30-293T), CAR-T/Target 0.11” value was 1%, the “Cytotoxicity (%) against CD30-expressing cell (CD30-293T), CAR-T/Target 0.33” value was 7% and the “Cytotoxicity (%) … (CD30-293T), CAR-T/Target 1” value was 33%.
In the case of B3, the “Cytotoxicity (%) against CD30-expressing cell (CD30-293T), CAR-T/Target 0.11” value is reported as 1%, the “Cytotoxicity (%) against CD30-expressing cell (CD30-293T), CAR-T/Target 0.33” value is reported as 7% and the “Cytotoxicity (%) … (CD30-293T), CAR-T/Target 1” value is reported as 13%.
B4 was tested, and the “Cytotoxicity (%) against CD30-expressing cell (CD30-293T), CAR-T/Target 0.11” value was 7%, the “Cytotoxicity (%) against CD30-expressing cell (CD30-293T), CAR-T/Target 0.33” value was 41% and the “Cytotoxicity (%) … (CD30-293T), CAR-T/Target 1” value was 79%.
With B5 the “Cytotoxicity (%) against CD30-expressing cell (CD30-293T), CAR-T/Target 0.11” value was -5%, the “Cytotoxicity (%) against CD30-expressing cell (CD30-293T), CAR-T/Target 0.33” value was -2% and the “Cytotoxicity (%) … (CD30-293T), CAR-T/Target 1” value was -2%.
For B6, the “Cytotoxicity (%) against CD30-expressing cell (CD30-293T), CAR-T/Target 0.11” value was 21%, the “Cytotoxicity (%) against CD30-expressing cell (CD30-293T), CAR-T/Target 0.33” value was 78% and the “Cytotoxicity (%) … (CD30-293T), CAR-T/Target 1” value was 98%.
With B7 the “Cytotoxicity (%) against CD30-expressing cell (CD30-293T), CAR-T/Target 0.11” value was -8%, the “Cytotoxicity (%) against CD30-expressing cell (CD30-293T), CAR-T/Target 0.33” value was 0% and the “Cytotoxicity (%) … (CD30-293T), CAR-T/Target 1” value was 35%.

Target: T1, CD30 expressed on cells (CD30-293T, …)
Experiment: cell-based or functional assay
Remark: another data set of the same source
B1 was tested, and the “Cytotoxicity (%) against CD30-expressing cell (SUDHL1), CAR-T/Target 0.11” value (“Cytotoxicity (%) … (SUDHL1), CAR-T/Target 0.11” for short) was -2%, the “Cytotoxicity (%) against CD30-expressing cell (SUDHL1), CAR-T/Target 0.33” value (“Cytotoxicity (%) … (SUDHL1), CAR-T/Target 0.33” for short) was 11% and the “Cytotoxicity (%) against CD30-expressing cell (SUDHL1), CAR-T/Target 1” value (“Cytotoxicity (%) … (SUDHL1), CAR-T/Target 1” for short) was 21%.
In the case of B2, the “Cytotoxicity (%) … (SUDHL1), CAR-T/Target 0.11” value is reported as 33%, the “Cytotoxicity (%) … (SUDHL1), CAR-T/Target 0.33” value is reported as 60% and the “Cytotoxicity (%) … (SUDHL1), CAR-T/Target 1” value is reported as 81%.
In the case of B3, the “Cytotoxicity (%) … (SUDHL1), CAR-T/Target 0.11” value is reported as 11%, the “Cytotoxicity (%) … (SUDHL1), CAR-T/Target 0.33” value is reported as 35% and the “Cytotoxicity (%) … (SUDHL1), CAR-T/Target 1” value is reported as 54%.
With B4 the “Cytotoxicity (%) … (SUDHL1), CAR-T/Target 0.11” value was 37%, the “Cytotoxicity (%) … (SUDHL1), CAR-T/Target 0.33” value was 68% and the “Cytotoxicity (%) … (SUDHL1), CAR-T/Target 1” value was 84%.
In the case of B5, the “Cytotoxicity (%) … (SUDHL1), CAR-T/Target 0.11” value is reported as 8%, the “Cytotoxicity (%) … (SUDHL1), CAR-T/Target 0.33” value is reported as 18% and the “Cytotoxicity (%) … (SUDHL1), CAR-T/Target 1” value is reported as 34%.
For B6, the “Cytotoxicity (%) … (SUDHL1), CAR-T/Target 0.11” value was 48%, the “Cytotoxicity (%) … (SUDHL1), CAR-T/Target 0.33” value was 89% and the “Cytotoxicity (%) … (SUDHL1), CAR-T/Target 1” value was 95%.
B7 was tested, and the “Cytotoxicity (%) … (SUDHL1), CAR-T/Target 0.11” value was 43%, the “Cytotoxicity (%) … (SUDHL1), CAR-T/Target 0.33” value was 60% and the “Cytotoxicity (%) … (SUDHL1), CAR-T/Target 1” value was 78%.
